This assay deals with UNC-49B GABA receptor subunit (UNC-49B.1 isoform) (C. elegans). The assay can be described thus: cell-based or functional assay.

Substance “UNC-49B GABA receptor subunit (UNC-49B.1 isoform)” gave a GABA concentration required to produce half-maximal channel activity (EC50), Xenopus oocytes injected with UNC-49B.1 mRNA, two-electrode voltage clamp of 43.7 µM and a single main conductance state, single channel recordings in HEK-293 cells expressing UNC-49B alone of 37.5 pS.
In the case of UNC-49C GABA receptor subunit, the EC50 value for GABA, Xenopus oocytes injected with equal amounts of UNC-49B and UNC-49C RNA, two-electrode voltage clamp came to 108 µM; the single main conductance state, single channel recordings in HEK-293 cells transfected with UNC-49B and UNC-49C was 30.9 pS.

(Values after patent US20030065144A1.)
